The values below come from patent US20100080812A1 (ROCHE PALO ALTO, published 2010).

The target of assay [1] is recombinant human IL-17 (Peprotech #200-17) (human) (UniProt Q16552). As to the kind of experiment: cell-based or functional assay.
Assay [2] shares this target. As to the kind of experiment: ELISA, coated IL-17 subtype, antibody 10 µg/ml, OD 405/492 nm. (In general: ELISA stands for enzyme-linked immunosorbent assay.)
For another assay, the target named is T1, human IL-17B (human, UniProt Q9UHF5 21-180, limits assumed).
T1 sequence (looked up): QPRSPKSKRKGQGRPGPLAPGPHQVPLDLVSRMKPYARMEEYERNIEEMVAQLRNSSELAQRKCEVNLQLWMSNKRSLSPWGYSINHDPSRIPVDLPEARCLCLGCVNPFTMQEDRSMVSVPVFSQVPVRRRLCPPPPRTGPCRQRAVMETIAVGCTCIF
The assay is described as above.

The target of assay [3] is T2, human IL-17C (human, UniProt Q9P0M4 19-197, limits assumed).
T2 sequence (looked up): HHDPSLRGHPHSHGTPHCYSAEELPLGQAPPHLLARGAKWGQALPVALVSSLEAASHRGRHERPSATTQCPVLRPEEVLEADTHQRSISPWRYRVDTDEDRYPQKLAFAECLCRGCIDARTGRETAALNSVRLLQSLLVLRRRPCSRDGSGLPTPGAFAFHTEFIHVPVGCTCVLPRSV
Described as above.

The target in a further assay is T3, human IL-17D (human, UniProt Q8TAD2 18-202, limits assumed).
T3 sequence (looked up): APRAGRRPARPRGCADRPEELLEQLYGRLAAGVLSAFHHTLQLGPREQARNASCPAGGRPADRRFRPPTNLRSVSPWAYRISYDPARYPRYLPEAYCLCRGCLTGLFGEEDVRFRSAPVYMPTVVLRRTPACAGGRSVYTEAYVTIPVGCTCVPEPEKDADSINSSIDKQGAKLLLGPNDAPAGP
Described as above.

The target in the next assay is T4, human IL-17E (human, UniProt Q9H293 33-177, limits assumed).
T4 sequence (looked up): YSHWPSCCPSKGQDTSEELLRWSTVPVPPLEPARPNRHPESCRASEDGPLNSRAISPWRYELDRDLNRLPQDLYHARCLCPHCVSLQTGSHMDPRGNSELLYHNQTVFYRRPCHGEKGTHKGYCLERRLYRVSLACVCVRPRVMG
The assay is described as above.

The target in assay [4] is T5, human IL-17F (human, UniProt Q96PD4 31-163, limits assumed).
T5 sequence (looked up): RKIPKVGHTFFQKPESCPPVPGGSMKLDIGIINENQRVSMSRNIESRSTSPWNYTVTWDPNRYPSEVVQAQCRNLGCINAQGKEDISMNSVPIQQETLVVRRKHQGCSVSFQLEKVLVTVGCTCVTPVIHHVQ
Described as above.

Assay [5] has as its target cynomolgus IL-17A (cynomolgus monkey). As to the kind of experiment: cell-based or functional assay.
Assay [6] deals with T6, recombinant human IL-17 (Peprotech #200-17) (human, UniProt Q16552 20-155).
T6 sequence (looked up): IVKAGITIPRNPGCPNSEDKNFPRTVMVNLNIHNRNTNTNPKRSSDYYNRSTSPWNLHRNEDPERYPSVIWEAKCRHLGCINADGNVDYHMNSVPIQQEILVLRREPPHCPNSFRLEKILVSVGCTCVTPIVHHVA
As to the kind of experiment: cell-based or functional assay.

The target of assay [7] is T6, recombinant human IL-17 (Peprotech …). As to the kind of experiment: cell-based or functional assay. The source holds these as a separate data set.
The next assay deals with T7, cynomolgus IL-17A (cynomolgus monkey, UniProt A0A2K5TTB0 24-155).
T7 sequence: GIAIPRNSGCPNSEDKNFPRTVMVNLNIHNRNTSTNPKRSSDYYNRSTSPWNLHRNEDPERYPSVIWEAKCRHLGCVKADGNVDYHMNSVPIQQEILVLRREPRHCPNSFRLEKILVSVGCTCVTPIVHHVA
As to the kind of experiment: cell-based or functional assay.

The target in assay [8] is T2, human IL-17C. As to the kind of experiment: ELISA on immobilized IL-17 variant.
In assay [9] the target is T5, human IL-17F. As to the kind of experiment: ELISA on immobilized IL-17 variant.
Assay [10] has as its target T6, recombinant human IL-17 (Peprotech …). As to the kind of experiment: ELISA, coated IL-17 subtype, antibody 10 µg/ml, OD 405/492 nm.

With MAB 317 of R&D Systems (antibody), in assay [1], the IL-6 Neutralization IC50 is 5.5 nM. The IL-8 Neutralization IC50 in [1] is 5.5 nM. Also, the Binding (IL-17A binding set as 100) (% (IL-17A binding set as 100)) came to 100 in assay [2]; 0 with human IL-17B; 0 with human IL-17C [3]; 0 in the assay with human IL-17D; 0 with human IL-17E; 0 with human IL-17F [4].
Regarding “Mab 16-7178-85 of eBioscience (antibody)”, the Binding (IL-17A binding set as 100) (% (IL-17A binding set as 100)) in assay [2] was 100; with human IL-17B, 7; with human IL-17C [3], 97; with human IL-17D, 6; with human IL-17E, 5; with human IL-17F [4] it was 5.
For NVP-AIN-497 (WO 2006013107) (antibody), the IL-6 Neutralization IC50 (nM) (using 100 ng/ml IL-17A) is more than 10 nM in assay [5] and 5 nM in assay [1]. For the same molecule, the IL-8 Neutralization IC50 (nM) (using 100 ng/ml IL-17A) was more than 10 nM in [5] and 4.2 nM in assay [1]. For the same molecule, the Binding (IL-17A binding set as 100) (% (IL-17A binding set as 100)) in [2] turned out to be 100; in the assay with human IL-17B, 2; with human IL-17C [3] it was 2; in the assay with human IL-17D, 0; in the assay with human IL-17E it was 3; with human IL-17F [4], 62.

B1: Mab 106 (antibody, V domains shown)
VH: EVQLVESGGGLVQPGGSLRLSCAASGFTFSDYTMLWVRQAPGKGLEWVAIIKSGGSYSYYPDSVKGRFTISRDNAKNSLYLQMNSLRAEDTAVYYCARDGDYGSSYGAMDYWGQGTLVTVSS
VL: DIQMTQSPSSLSASVGDRVTITCRASQDINSYLSWFQQKPGKAPKSLIYRANRLVDGVPSRFSGSGSGQDYSLTISSLQPEDFATYYCLQYDAFPPYTFGQGTKLEIK
notes: Humanized version of 3C1; Only the variable domains are tied to it; also called Mab K106
Take B1: in [6], the “IL-6 Neutralization IC50” value turned out to be 1 nM. In addition, the “IL-8 Neutralization IC50” value in assay [6] was 1 nM. For the same molecule, the “IL-6 Neutralization IC50 (nM) (using 100 ng/ml IL-17A)” value came out at 2.1 nM in [7] and 0.7 nM in the assay with cynomolgus IL-17A. Besides, the “IL-8 Neutralization IC50 (nM) (using 100 ng/ml IL-17A)” value in [7] stood at 1.6 nM; with cynomolgus IL-17A, 0.6 nM. The binding result with human IL-17C [8] and with human IL-17F [9] was “no binding (tested: S/N ratio lower than 7:1)” throughout. Further, the “Binding (IL-17A binding set as 100)” value in assay [10] is 100 % (IL-17A binding set as 100); with human IL-17B, 0 % (IL-17A binding set as 100); with human IL-17C [3], 0 % (IL-17A binding set as 100); with human IL-17D, 0 % (IL-17A binding set as 100); with human IL-17E it was 1 % (IL-17A binding set as 100); with human IL-17F [4], 0 % (IL-17A binding set as 100).
